# Reference: the supplement of paper PMC11316812
# ± gives the standard deviation of the averaged measurements.
# Key:
# hTERT-HMEC = assay: percentage of EdU-negative (G0-arrested) nuclei per well, 72 h; higher = more G0 arrest; details: reference: sequence is the full UniProt precursor, the tested protein was the secreted form or ectodomain
# MCF7 = assay: as above; details: reference: sequence is the full UniProt precursor, the tested protein was the secreted form or ectodomain
# [1] = protein concentration 0.0237143 µM
# [2] = protein concentration 0.237143 µM
# [3] = protein concentration 0.0085 µM
# [4] = protein concentration 0.0111429 µM
# [5] = protein concentration 0.111429 µM
# [6] = protein concentration 0.00828571 µM
# [7] = protein concentration 0.0828571 µM
# 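Also: secreted proteins added to cultured cells, EdU pulse at the end, nuclei found by Hoechst imaging, EdU status from nuclear versus surrounding ring intensity ratio, PBS as neutral control.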
sequence,measurement,setting,value
MVWRVPPFLLPILFLASHVGAAVDLTLLANLRLTDPQRFFLTCVSGEAGAGRGSDAWGPPLLLEKDDRIVRTPPGPPLRLARNGSHQVTLRGFSKPSDLVGVFSCVGGAGARRTRVIYVHNSPGAHLLPDKVTHTVNKGDTAVLSARVHKEKQTDVIWKSNGSYFYTLDWHEAQDGRFLLQLPNVQPPSSGIYSATYLEASPLGSAFFRLIVRGCGAGRWGPGCTKECPGCLHGGVCHDHDGECVCPPGFTGTRCEQACREGRFGQSCQEQCPGISGCRGLTFCLPDPYGCSCGSGWRGSQCQEACAPGHFGADCRLQCQCQNGGTCDRFSGCVCPSGWHGVHCEKSDRIPQILNMASELEFNLETMPRINCAAAGNPFPVRGSIELRKPDGTVLLSTKAIVEPEKTTAEFEVPRLVLADSGFWECRVSTSGGQDSRRFKVNVKVPPVPLAAPRLLTKQSRQLVVSPLVSFSGDGPISTVRLHYRPQDSTMDWSTIVVDPSENVTLMNLRPKTGYSVRVQLSRPGEGGEGAWGPPTLMTTDCPEPLLQPWLEGWHVEGTDRLRVSWSLPLVPGPLVGDGFLLRLWDGTRGQERRENVSSPQARTALLTGLTPGTHYQLDVQLYHCTLLGPASPPAHVLLPPSGPPAPRHLHAQALSDSEIQLTWKHPEALPGPISKYVVEVQVAGGAGDPLWIDVDRPEETSTIIRGLNASTRYLFRMRASIQGLGDWSNTVEESTLGNGLQAEGPVQESRAAEEGLDQQLILAVVGSVSATCLTILAALLTLVCIRRSCLHRRRTFTYQSGSGEETILQFSSGTLTLTRRPKLQPEPLSYPVLEWEDITFEDLIGEGNFGQVIRAMIKKDGLKMNAAIKMLKEYASENDHRDFAGELEVLCKLGHHPNIINLLGACKNRGYLYIAIEYAPYGNLLDFLRKSRVLETDPAFAREHGTASTLSSRQLLRFASDAANGMQYLSEKQFIHRDLAARNVLVGENLASKIADFGLSRGEEVYVKKTMGRLPVRWMAIESLNYSVYTTKSDVWSFGVLLWEIVSLGGTPYCGMTCAELYEKLPQGYRMEQPRNCDDEVYELMRQCWRDRPYERPPFAQIALQLGRMLEARKAYVNMSLFENFTYAGIDATAEEA,percentage of EdU-negative,hTERT-HMEC; [1],5.57 ± 1.2%
same,percentage of EdU-negative,hTERT-HMEC; [2],5.36 ± 0.036%
same,percentage of EdU-negative,MCF7; [1],23.1 ± 1.1%
same,percentage of EdU-negative,MCF7; [2],26.39 ± 0.034%
MWAGLLLRAACVALLLPGAPARGYTGRKPPGHFAAERRRLGPHVCLSGFGSGCCPGWAPSMGGGHCTLPLCSFGCGSGICIAPNVCSCQDGEQGATCPETHGPCGEYGCDLTCNHGGCQEVARVCPVGFSMTETAVGIRCTDIDECVTSSCEGHCVNTEGGFVCECGPGMQLSADRHSCQDTDECLGTPCQQRCKNSIGSYKCSCRTGFHLHGNRHSCVDVNECRRPLERRVCHHSCHNTVGSFLCTCRPGFRLRADRVSCEAFPKAVLAPSAILQPRQHPSKMLLLLPEAGRPALSPGHSPPSGAPGPPAGVRTTRLPSPTPRLPTSSPSAPVWLLSTLLATPVPTASLLGNLRPPSLLQGEVMGTPSSPRGPESPRLAAGPSPCWHLGAMHESRSRWTEPGCSQCWCEDGKVTCEKVRCEAACSHPIPSRDGGCCPSCTGCFHSGVVRAEGDVFSPPNENCTVCVCLAGNVSCISPECPSGPCQTPPQTDCCTCVPVRCYFHGRWYADGAVFSGGGDECTTCVCQNGEVECSFMPCPELACPREEWRLGPGQCCFTCQEPTPSTGCSLDDNGVEFPIGQIWSPGDPCELCICQADGSVSCKRTDCVDSCPHPIRIPGQCCPDCSAGCTYTGRIFYNNETFPSVLDPCLSCICLLGSVACSPVDCPITCTYPFHPDGECCPVCRDCNYEGRKVANGQVFTLDDEPCTRCTCQLGEVSCEKVPCQRACADPALLPGDCCSSCPDSLSPLEEKQGLSPHGNVAFSKAGRSLHGDTEAPVNCSSCPGPPTASPSRPVLHLLQLLLRTNLMKTQTLPTSPAGAHGPHSLALGLTATFPGEPGASPRLSPGPSTPPGAPTLPLASPGAPQPPPVTPERSFSASGAQIVSRWPPLPGTLLTEASALSMMDPSPSKTPITLLGPRVLSPTTSRLSTALAATTHPGPQQPPVGASRGEESTM [Q96DN2],percentage of EdU-negative,hTERT-HMEC; [3],4.9939 ± 0.0014%
same,percentage of EdU-negative,hTERT-HMEC; protein concentration 0.085 µM,5.36 ± 0.4%
same,percentage of EdU-negative,MCF7; [3],25.5 ± 1.1%
same,percentage of EdU-negative,MCF7; protein concentration 0.085 µM,26.4 ± 1.8%
MWAPRCRRFWSRWEQVAALLLLLLLLGVPPRSLALPPIRYSHAGICPNDMNPNLWVDAQSTCRRECETDQECETYEKCCPNVCGTKSCVAARYMDVKGKKGPVGMPKEATCDHFMCLQQGSECDIWDGQPVCKCKDRCEKEPSFTCASDGLTYYNRCYMDAEACSKGITLAVVTCRYHFTWPNTSPPPPETTMHPTTASPETPELDMAAPALLNNPVHQSVTMGETVSFLCDVVGRPRPEITWEKQLEDRENVVMRPNHVRGNVVVTNIAQLVIYNAQLQDAGIYTCTARNVAGVLRADFPLSVVRGHQAAATSESSPNGTAFPAAECLKPPDSEDCGEEQTRWHFDAQANNCLTFTFGHCHRNLNHFETYEACMLACMSGPLAACSLPALQGPCKAYAPRWAYNSQTGQCQSFVYGGCEGNGNNFESREACEESCPFPRGNQRCRACKPRQKLVTSFCRSDFVILGRVSELTEEPDSGRALVTVDEVLKDEKMGLKFLGQEPLEVTLLHVDWACPCPNVTVSEMPLIIMGEVDGGMAMLRPDSFVGASSARRVRKLREVMHKKTCDVLKEFLGLH [Q8TEU8],percentage of EdU-negative,hTERT-HMEC; [4],5.48 ± 1.1%
same,percentage of EdU-negative,hTERT-HMEC; [5],6.03 ± 0.2%
same,percentage of EdU-negative,MCF7; [4],25.8 ± 3%
same,percentage of EdU-negative,MCF7; [5],28.02 ± 0.15%
MWAQLLLGMLALSPAIAEELPNYLVTLPARLNFPSVQKVCLDLSPGYSDVKFTVTLETKDKTQKLLEYSGLKKRHLHCISFLVPPPAGGTEEVATIRVSGVGNNISFEEKKKVLIQRQGNGTFVQTDKPLYTPGQQVYFRIVTMDSNFVPVNDKYSMVELQDPNSNRIAQWLEVVPEQGIVDLSFQLAPEAMLGTYTVAVAEGKTFGTFSVEEYVLPKFKVEVVEPKELSTVQESFLVKICCRYTYGKPMLGAVQVSVCQKANTYWYREVEREQLPDKCRNLSGQTDKTGCFSAPVDMATFDLIGYAYSHQINIVATVVEEGTGVEANATQNIYISPQMGSMTFEDTSNFYHPNFPFSGKIRVRGHDDSFLKNHLVFLVIYGTNGTFNQTLVTDNNGLAPFTLETSGWNGTDVSLEGKFQMEDLVYNPEQVPRYYQNAYLHLRPFYSTTRSFLGIHRLNGPLKCGQPQEVLVDYYIDPADASPDQEISFSYYLIGKGSLVMEGQKHLNSKKKGLKASFSLSLTFTSRLAPDPSLVIYAIFPSGGVVADKIQFSVEMCFDNQVSLGFSPSQQLPGAEVELQLQAAPGSLCALRAVDESVLLLRPDRELSNRSVYGMFPFWYGHYPYQVAEYDQCPVSGPWDFPQPLIDPMPQGHSSQRSIIWRPSFSEGTDLFSFFRDVGLKILSNAKIKKPVDCSHRSPEYSTAMGAGGGHPEAFESSTPLHQAEDSQVRQYFPETWLWDLFPIGNSGKEAVHVTVPDAITEWKAMSFCTSQSRGFGLSPTVGLTAFKPFFVDLTLPYSVVRGESFRLTATIFNYLKDCIRVQTDLAKSHEYQLESWADSQTSSCLCADDAKTHHWNITAVKLGHINFTISTKILDSNEPCGGQKGFVPQKGRSDTLIKPVLVKPEGVLVEKTHSSLLCPKGKVASESVSLELPVDIVPDSTKAYVTVLGDIMGTALQNLDGLVQMPSGCGEQNMVLFAPIIYVLQYLEKAGLLTEEIRSRAVGFLEIGYQKELMYKHSNGSYSAFGERDGNGNTWLTAFVTKCFGQAQKFIFIDPKNIQDALKWMAGNQLPSGCYANVGNLLHTAMKGGVDDEVSLTAYVTAALLEMGKDVDDPMVSQGLRCLKNSATSTTNLYTQALLAYIFSLAGEMDIRNILLKQLDQQAIISGESIYWSQKPTPSSNASPWSEPAAVDVELTAYALLAQLTKPSLTQKEIAKATSIVAWLAKQHNAYGGFSSTQDTVVALQALAKYATTAYMPSEEINLVVKSTENFQRTFNIQSVNRLVFQQDTLPNVPGMYTLEASGQGCVYVQTVLRYNILPPTNMKTFSLSVEIGKARCEQPTSPRSLTLTIHTSYVGSRSSSNMAIVEVKMLSGFSPMEGTNQLLLQQPLVKKVEFGTDTLNIYLDELIKNTQTYTFTISQSVLVTNLKPATIKVYDYYLPDEQATIQYSDPCE [A8K2U0],percentage of EdU-negative,hTERT-HMEC; [6],5.09 ± 0.24%
same,percentage of EdU-negative,hTERT-HMEC; [7],5.43 ± 0.39%
same,percentage of EdU-negative,MCF7; [6],23.3 ± 1.1%
same,percentage of EdU-negative,MCF7; [7],29.5 ± 1.8%
